# Measured values published in paper PMC10666096 (Proceedings of the National Academy of Sciences of the …, 2023).
# B1: Cyanine-5 labeled N43S Fluc-Bpe (natural protein, Bordetella pertussis)
# chain: MLTYAPLNFIAIGIGATLGAWLRWVLGLKLNGAGWPWGTLTASLVGGYLIGVMVALIASHPEWPAWIRLAAVTGFLGGLTTFSTFSAETVDMLSRGVYATAAAYAGASLAGSLAMTGLGLATVRLLLC
# modifications: Cy5 (Cyanine5-maleimide) on the cysteine of R128C
# Molecular target: the molecule itself
# Assay: single-molecule photobleaching analysis
protein,measurement,value
B1,stoichiometry N,2
